Test results taken from publication PMC12503259, “Establishment of an in vivo analytical method for detecting total anti-UFH activity and pharmacokinetic study in PS and R15 in rats” (PLOS One, 2025).

Experiments:
[1] = tested on: complement; conditions: under UFH excess; cited from earlier work
From the text: PS and UFH-PS complexes activate complement. Complement fragments can accumulate in the pulmonary microcirculation, up-regulate endothelial adhesion molecules, and recruit neutrophils and monocytes, forming inflammatory microthrombi.

[2] = in vivo; cited from earlier work
From the text: In clinical practice, PS is typically administered at 1.2 times the anti-heparin activity of circulating UFH to achieve complete neutralization [40, 41].

[3] = Stability in rat plasma at room temperature for 30 min; assay type: in vitro ADME; conditions: for RE%: plasma sample, room temperature (25℃) for 30 min, n=6; for Measured concentration after storage, Mean ± SD / RE (%) versus nominal concentration: rat plasma, room temperature (25°C ± 1°C) for 30 min; for Measured concentration after storage, Mean ± SD: n = 6
Method: Processing of Plasma Samples: 100 μL of the unknown plasma sample was added to 500 μL of 75% methanol (methanol: water = 75:25, v/v) and vortex-mixed for 5 seconds. The mixture was then centrifuged at 12,000 r/min for 10 minutes at 25°C. The supernatant (500 μL) was collected and dried under nitrogen at 60°C. Subsequently, UFH (0.14 U·mL^-1 for PS and 0.15 U·mL^-1 for R15; 120 μL) was added, and the mixture was vigorously shaken at room temperature for 10 minutes. The residual UFH content was measured using the Heparin Anti-FXa assay kit.
The detailed procedure is as follows: Accurately pipette 40 μL of the sample into a 96-well plate. Place the plate in a microplate shaker. Using a multichannel pipette, add 40 μL of reagent R1 and mix by shaking. Incubate at 37 °C for exactly 3 minutes (start timing upon addition of R1; at 50 seconds, begin shaking with the microplate shaker for 1 minute, then place the plate in the incubator). Remove the 96-well plate from the incubator and place it on the open microplate shaker. Using a multichannel pipette, add 40 μL of reagent R2 to each well and incubate at 37 °C for 6 minutes (after adding R2, at 3 minutes and 50 seconds, open the microplate shaker and shake for 4 minutes, then return the plate to the incubator). Remove the 96-well plate from the incubator and place it on the open microplate shaker. Quickly add 40 μL of reagent R3 using a multichannel pipette and shake until 9 minutes and 10 seconds. At 9 minutes and 30 seconds, add 80 μL of 20% acetic acid to each well to terminate the reaction. Measure the absorbance at 405 nm using a microplate reader (Multiskan FC, Thermo Fisher US).
(§1) Two concentration levels (low and high QC) were evaluated for validation of storage stability and freeze/thaw stability. Two concentration levels of PS and R15 (low and high QC) in blank rat plasma were prepared (n = 6), respectively. Samples in rats’ plasma were determined after storage at room temperature (25°C ± 1°C) for 30 min. Samples in rats’ plasma were under three freeze (−80°C)-thaw (25°C) cycles. Stock solution of PS and R15 were stored at 4°C for a week. All the samples mentioned above were processed by calibration curves with adequate QC samples diluted from newly prepared stock solution of PS and R15, followed by procedure of sample determination (see “Sample Preparation”), respectively.

[4] = tested on: activated partial thromboplastin time (APTT); conditions: in vitro, supratherapeutic amounts; cited from earlier work
[5] = clinical use; cited from earlier work
From the text: PS is a cationic protein mixture with a molecular weight of 4000–6000 Da, and is the only heparin antagonist approved for clinical use. PS is primarily extracted from the sperm of wild salmon species, and this cationic protein binds to the anionic heparin, forming a UFH-PS complex that neutralizes the activity of heparin [7–10]. However, PS is associated with several adverse reactions in clinical applications, such as systemic hypotension, pulmonary hypertension, and allergic reactions. Despite extensive exploration of its mechanisms, the underlying causes of PS-related a ...

[6] = Stability of stock solution at 4°C for a week; assay type: physicochemical; conditions: for Measured concentration after storage, Mean ± SD: stock solution (10 mg·mL^-1 in deionized water) stored 1 week at 4°C, n = 6; for Mean determined concentration, stability of stock solution / RE%: stock solution for 1 week; for Mean determined concentration, stability of stock solution: mean of n=6; for RE%: n=6; for RE (%) versus nominal concentration: stock solution stored 1 week at 4°C
Method: Preparation of Stock Solutions: Appropriate amounts of PS and R15 powders were accurately weighed and dissolved in deionized water to obtain stock solutions at 10 mg·mL^-1, respectively. This solution was stored in a refrigerator at 4 °C and replaced regularly.
as §1

[7] = Specific activity, units of UFH neutralized per mg; assay type: biochemical; conditions: units of UFH exactly neutralized per milligram
From the text: Since the toxicity of both PS and R15 correlates with their heparin antagonism capacity (i.e., potency), the units used for PS and R15 in most experiments are U·mL^-1 or U·kg^-1. Employing activity units (U) allows for a more scientifically rigorous comparison of the pharmacokinetic parameters of PS and R15 under equivalent activity levels (i.e., equivalent heparin antagonism capacity).
The specific activity of PS is 150 U·mg^-1, meaning that each milligram of PS can exactly neutralize 150 units of UFH. The specific activity of R15 is 170 U·mg^-1, meaning that each milligram of R15 can exactly neutralize 170 units of UFH. Therefore, expressing the concentration of PS as 1 U·mL^-1 denotes that each milliliter of the medium contains sufficient PS to neutralize 1 unit of UFH, and the same applies to R15.

Protamine sulfate [PS]
complement activation by UFH-PS complex relative to UFH–R15 complex [1]: 8.28 fold | T1/2 [2]: 7.4 min | RE% ([3]; nominal 0.70 μg/mL): 8.10% | RE% ([3]; nominal 1.50 μg/mL): 4.44% | Measured concentration after storage, Mean ± SD ([3]; nominal 0.7 μg·mL^-1, anti-FXa read-out at 405 nm): 0.76 ± 0.01 µg/mL | RE (%) versus nominal concentration ([3]; nominal 0.7 μg·mL^-1, n = 6): 8.10% | Measured concentration after storage, Mean ± SD ([3]; nominal 1.5 μg·mL^-1, anti-FXa read-out at 405 nm): 1.57 ± 0.09 µg/mL | RE (%) versus nominal concentration ([3]; nominal 1.5 μg·mL^-1, n = 6): 4.44% | effect of excess on APTT [4]: persistently prolonged APTT | rate of mild adverse reactions [5]: ≤ 16% | Measured concentration after storage, Mean ± SD ([6]; then diluted to nominal 0.7 μg·mL^-1, anti-FXa read-out): 0.59 ± 0.02 µg/mL | Measured concentration after storage, Mean ± SD ([6]; then diluted to nominal 1.5 μg·mL^-1, anti-FXa read-out): 1.44 ± 0.04 µg/mL | Mean determined concentration, stability of stock solution ([6]; nominal 0.7 μg/mL): 0.59 µg/mL | RE% ([6]; nominal 0.7 μg/mL): -15.2% | Mean determined concentration, stability of stock solution ([6]; nominal 1.5 μg/mL): 1.44 µg/mL | RE% ([6]; nominal 1.5 μg/mL): -4.1% | RE (%) versus nominal concentration ([6]; nominal 0.7 μg·mL^-1, n = 6): −15.2% | RE (%) versus nominal concentration ([6]; nominal 1.5 μg·mL^-1, n = 6): −4.1% | specific activity [7]: 150 U·mg^-1
